Source: US20080085266A1

Biological target: ICAM-1 (human) (UniProt P05362)
Test: cell-based or functional assay

Sequence of ICAM-1 (human) (P05362 28-532): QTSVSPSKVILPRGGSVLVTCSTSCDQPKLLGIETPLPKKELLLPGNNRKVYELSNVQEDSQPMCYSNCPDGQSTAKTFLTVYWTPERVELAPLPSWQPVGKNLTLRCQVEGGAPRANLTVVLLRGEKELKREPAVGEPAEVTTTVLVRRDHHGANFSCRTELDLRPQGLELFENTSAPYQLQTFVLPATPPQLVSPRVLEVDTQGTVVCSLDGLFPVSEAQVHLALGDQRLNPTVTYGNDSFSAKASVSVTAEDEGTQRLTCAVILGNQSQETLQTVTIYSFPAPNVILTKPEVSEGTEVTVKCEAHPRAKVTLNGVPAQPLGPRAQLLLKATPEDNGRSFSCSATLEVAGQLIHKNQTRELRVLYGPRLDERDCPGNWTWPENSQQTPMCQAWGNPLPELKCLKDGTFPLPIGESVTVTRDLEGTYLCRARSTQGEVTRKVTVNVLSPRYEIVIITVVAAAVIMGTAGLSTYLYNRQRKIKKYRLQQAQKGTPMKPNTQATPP

- inhibition of tumor lysis by peptide specific CTLs with anti-CD11a (LFA-1) MAb, tumor cells after IFN-gamma exposure: 60 to 86%
Substance: CD11a (LFA-1) (from UniProt P20701 26-1170) (receptor)
